“Also recorded” adds a separate entry of the source.
Assays:
[1] = system: alanine substituted 13mer tau peptides; test: Alanine scanning mutagenesis (ASM) peptide ELISA; assay type: binding, human; conditions: numbering according to SEQ ID NO: 1; description text 'may be'
Procedure: To further elucidate epitopes of the scAb panel, and identify the critical amino acids needed for binding, alanine scanning mutagenesis of the parent 13 aa peptides for scAbs CE2, S1D12, CA4 and S1G2 was performed. […] Briefly, 5 μg/ml streptavidin (Thermo Fisher) was adsorbed to Nunc 96-well MaxiSorp plates and following incubation at 37° C., for 1 h, the plates were washed as normal and blocked with 2% MPBS. N-terminally biotinylated peptides (Prolmmune Ltd) were added to the plates and incubated for 1 h at 37° C. Subsequently, test scAbs at starting concentrations of 100-500 nM was added and double diluted across the plate for each peptide and incubated for 1 h at 37° C. Rest of the ELISA was conducted as described above and the plates were read at absorbance 450 nm. Immunoreactivity of the scAb of interest was quantified as the % of scAb was bound for each peptide at a chosen concentration (FIG. 15-20).

hT40 = hT40 (Homo sapiens, UniProt P10636); test: Biacore X100 SPR, scAb captured via anti-HuCk, hT40 as analyte; assay type: binding; conditions: scAb, Table 23, T441 (hT40)
Procedure, shortened: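 Captured scAb on anti-HuCk CM5 surface (flow cell 1 as reference) in HBS-EP+, capture set for theoretical RMax 100 RU; hT40 injected multi-cycle (0.15625–100 nM) or single-cycle (6.25–100 nM), 120 s association, 420 s dissociation, glycine pH 2.0 regeneration. Kinetics and affinity from 1:1 binding model fit.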

htau40 = htau40 (Homo sapiens, UniProt P10636); test: Biacore X100 SPR of anti-tau mAbs on immobilised htau40; assay type: binding; conditions: mAb, Table 27, immobilised hT40
Procedure, shortened: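 htau40 amine-coupled to a CM5 chip (~250 RU); mAb injected at 0.78–25 nM in HBS-EP+ at 30 μL/min, 120 s association, 600 s dissociation, glycine pH 1.5 regeneration. Kinetics and affinity from 1:1 binding fit with reference-cell subtraction.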

human tau and mouse tau = test: Western blot of WT, L66+/+ and L1+/+ mouse brain homogenates; assay type: binding; conditions: 20 μg protein, 5-month-old mice
Procedure: Protein equivalent to 20 μg from each brain extract was separated using 4-20% bis-tris gels and run in 1×MES buffer.
A band is detected in each sample (WT, L66^+/+ and L1^+/+) with an apparent molecular weight of approximately 55 kDa. This band most likely corresponds to endogenous mouse tau which is of a similar size. In the L66^+/+ samples, a second band running at approximately 68 kDa is also detected. The presence of numerous other bands indicates proteolytic truncation of tau within brain homogenates.

Chain of htau40 (P10636 1-441 isoform P10636-8): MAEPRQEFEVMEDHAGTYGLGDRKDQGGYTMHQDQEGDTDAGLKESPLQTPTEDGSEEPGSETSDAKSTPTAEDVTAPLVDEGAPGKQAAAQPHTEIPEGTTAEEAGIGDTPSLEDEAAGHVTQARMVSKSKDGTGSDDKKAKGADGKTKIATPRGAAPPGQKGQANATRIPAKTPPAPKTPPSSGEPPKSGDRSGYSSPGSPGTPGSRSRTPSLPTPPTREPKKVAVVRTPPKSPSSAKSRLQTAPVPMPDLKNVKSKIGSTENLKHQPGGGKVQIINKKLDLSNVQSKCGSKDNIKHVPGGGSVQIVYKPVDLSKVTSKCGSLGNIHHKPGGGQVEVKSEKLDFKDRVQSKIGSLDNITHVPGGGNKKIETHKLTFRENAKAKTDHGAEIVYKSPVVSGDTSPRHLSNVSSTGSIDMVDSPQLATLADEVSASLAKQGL
Chain of hT40 (P10636 1-441 isoform P10636-8): as above

Molecule	Critical residues of the epitope [1]	ka (hT40) [M⁻¹ s⁻¹]	kd (hT40) [s⁻¹]	ka (htau40) [M⁻¹ s⁻¹]	kd (htau40) [s⁻¹]	bands detected in western blot of WT, L66+/+ and L1+/+ brain homogenates (human tau and mouse tau)
S1G2: anti-tau clone, SEQ ID NO: 81 (protein, S1G2 amino acid sequence) scFv: QVQLQESGPSLVKPSQTLSLTCTVSGFSLTSNSVGWVRQAPGKAPEWVAGIDTDGEEGYNPALNSRLSITRDTSKSQVSLSLSSVTSEDTAVYYCGRSYRADGLAYGYVQAIDYWGPGLLVTVSSEGKSSGASGESKVDDQAVVTQPSSVSGSLGQRVSITCSGSFIGISSVGWFQQLPGSGLRTIIVASDGRPSGVPDRFSMSKSGNTATLTISSLQAEDEADYFCGSSDRTPYTGVFGSGTRLTVLG	370 (K) and/or 374 (H)	1.057e+06	0.00018	339800	4.748e-05	numerous bands visible in each mouse sample; also recorded: able to detect the pathologic 10-kDa tau fragment
S1D12: anti-tau clone from immunised sheep, SEQ ID NO: 32 (protein, S1D12 amino acid sequence) scFv: QVQLQESGPSLVKPSQTLSLTCTVSGFSLNNNAVGWVRQAPGKVPESLVGCSSDGTCYYNSALKSRLDITRDTSKNQISLSLSSVTTDDAAVYYCTRGHYSIYGYDYLGTIDYWGPGLLVTVSSEGKSSGASGESKVDDQAVLTQPSSVSGSLGQRVSITCSGSSSNVGGGNSVGWYQHLPGSGLKTIIYDTNSRPSGVPDRFSGSRSGNTATLTINSLQAEDEGDYYCVTGDSTTHDDLVGSGTRLTVLG	343 (K), 346 (F) and/or 349 (R)	1.252e+06	0.00015	405800	4.093e-05	numerous bands visible in each mouse sample
